Assay results as given in patent US20250282879A1.
Like-named read-outs stand apart in the source and are kept apart here. Each block holds one binder with its values, some of them ahead of it.

What was measured:
[1] = biological target: recombinant human IL-31 protein (Peprotech) (human) (UniProt Q6EBC2)
[2] = biological target: recombinant human IL-31 protein (Peprotech) (human) (UniProt Q6EBC2); remark: listed apart in the source
[3] = biological target: recombinant human IL-31 protein (Peprotech) (human) (UniProt Q6EBC2); remark: listed apart in the source
[4] = biological target: recombinant human IL-31 protein (Peprotech) (human) (UniProt Q6EBC2); remark: listed apart in the source
[5] = biological target: recombinant cynomolgus monkey IL-31 (ECD with His Tag, Sino Biological) (cynomolgus monkey)
[6] = biological target: recombinant cynomolgus monkey IL-31 (ECD with His Tag, Sino Biological) (cynomolgus monkey); test: SPR, IL-31-His captured, scFv analyte (30 and 10 nM)
[7] = biological target: recombinant human IL-31 protein (Peprotech) (human) (UniProt Q6EBC2); test: cell-based or functional assay
[8] = biological target: recombinant cynomolgus monkey IL-31 (ECD with His Tag, Sino Biological) (cynomolgus monkey); test: SPR, IL-31-His captured, scFv analyte, screening mode
[9] = biological target: recombinant cynomolgus monkey IL-31 (ECD with His Tag, Sino Biological) (cynomolgus monkey); test: SPR, IL-31-His captured, scFv analyte, full titration mode
[10] = biological target: cynomolgus IL-4R ECD (cynomolgus monkey (Macaca fascicularis)); test: SPR, direct setup, cynomolgus IL-4R ECD immobilized
Human IL-4R-Fc (human) = Human IL-4R-Fc (human) (UniProt P24394); test: SPR, hIL-4R-Fc captured, scFv analyte
[11] = biological target: human IL-4R on cells (HEK-Blue IL-4/IL-13 cells, human PBMC, human whole blood) (human) (UniProt P24394); test: cell-based or functional assay
[12] = biological target: marmoset IL-4R ECD (marmoset (Callithrix jacchus)) (UniProt Q0PIT7); test: SPR, direct setup, marmoset IL-4R ECD immobilized
[13] = biological target: cynomolgus IL-4R-Fc (cynomolgus monkey (Macaca fascicularis)); test: SPR, capture setup, cynomolgus IL-4R-Fc captured
Sequence of cynomolgus IL-4R-Fc (cynomolgus monkey (Macaca fascicularis)) (chain, as listed by the source): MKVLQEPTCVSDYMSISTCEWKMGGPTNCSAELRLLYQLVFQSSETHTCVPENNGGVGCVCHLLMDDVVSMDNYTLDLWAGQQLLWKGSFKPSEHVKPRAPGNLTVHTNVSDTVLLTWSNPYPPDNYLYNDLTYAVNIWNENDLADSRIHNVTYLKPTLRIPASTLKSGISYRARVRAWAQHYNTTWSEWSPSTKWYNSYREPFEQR

Sequence of cynomolgus IL-4R ECD (cynomolgus monkey (Macaca fascicularis)) (A0A2K5 entry or part of it limits assumed): as the sequence (chain, as listed by the source) above
Sequence of recombinant human IL-31 protein (Peprotech) (human) (Q6EBC2 24-164 limits assumed): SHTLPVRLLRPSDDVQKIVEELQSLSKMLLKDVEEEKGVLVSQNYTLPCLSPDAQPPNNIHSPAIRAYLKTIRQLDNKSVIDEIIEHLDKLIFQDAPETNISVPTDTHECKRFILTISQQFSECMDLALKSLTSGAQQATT
Sequence of marmoset IL-4R ECD (marmoset (Callithrix jacchus)) (Q0PIT7 entry or part of it limits assumed): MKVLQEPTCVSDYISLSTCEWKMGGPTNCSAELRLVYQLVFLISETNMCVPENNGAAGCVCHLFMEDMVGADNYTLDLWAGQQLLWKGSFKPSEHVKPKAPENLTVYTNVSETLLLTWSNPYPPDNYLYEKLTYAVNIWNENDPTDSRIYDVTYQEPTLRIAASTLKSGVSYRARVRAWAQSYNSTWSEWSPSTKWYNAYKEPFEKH

B1: BMS-981164 (antibody, from another filing, V domains shown)
VH: QVQLVQSGAEVKKPGASVKVSCKASGYTLTRYWMQWVRQAPGQGLEWMGAIYPGDGDTRYSQKFQGRVTLTADKSTSTAYMELSSLRSEDTAVYYCAFPDGYYAAPYGMDYWGQGTLVTVSS
VL: DIQMTQSPSSLSASVGDRVTITCRASGNIHNYLAWYQQKPGKVPKLLIYNAKTLADGVPSRFSGSRSETQYSLTISSLQPEDVATYYCQHFWSTPWTFGQGTKVEIKR
IC50 (read off the curve), human IL-31-induced IL-31RA/OSMR dimerization [1]: 0.1 nM | IC50 (read off the curve), human IL-31-induced IL-31RA/OSMR dimerization [2]: 0.07 nM | IC50 (read off the curve), human IL-31-induced IL-31RA/OSMR dimerization [3]: 0.06 nM | IC50 (read off the curve), human IL-31-induced IL-31RA/OSMR dimerization [4]: 0.2 nM | IC50, cynomolgus IL-31-induced IL-31RA/OSMR dimerization (RLU) [table under the graph] [5]: 0.178 nM

B4: PRO1643 (scFv, V domains shown)
VH: QSQLVESGGGLVQPGGSLRLSCAASGFSFSANYWICWVRQAPGKGLEWIVCIYIGSRADTYYAPWAKGRFTISKDNSKNTVYLQMNSLRAEDTAVYFCARFSSGIYDLDRFFLWGQGTLVTVSS
V domain: AFQLTQSPSSLSASVGDRVTITCQASQSIDSWLAWYQQKPGKPPKLLIYQASKLASGVPSRFSGSGSGTDYTLTISSLQPEDFATYYCQTYYGGGHIGWGFGTGTKVTV
Kd [8]: 0.583 nM | koff [8]: 0.000444 s⁻¹ | kon [8]: 761000 M⁻¹ s⁻¹ | Kd [6]: 1.17 nM | koff [6]: 0.000587 s⁻¹ | kon [6]: 501000 M⁻¹ s⁻¹ | Kd [9]: 0.557 nM | koff [9]: 0.000426 s⁻¹ | kon [9]: 764000 M⁻¹ s⁻¹

B5: PRO1517 (scFv, V domains shown)
VH: EVQLVESGGGLVQPGGSLRLSCAASGFSSSSAHYMCWVRQAPGKGLEWIGCIYAGSRGSTYYASWAKGRFTISRDNSKNTVYLQMNSLRAEDTAVYYCARAAFVNRGVSWIWPYYFSLWGQGTLVTVSS
VL: DIQMTQSPSSLSASVGDRVTITCQASEDIESYLAWYQQKPGKAPKLLIYRASTLAYGVPSRFSGSGSGTDFTLTISSLQPEDFATYYCLGSSYSTGSNIFGTGTKVTVLG
Kd [10]: 0.681 nM | koff [10]: 0.000404 s⁻¹ | kon [10]: 594000 M⁻¹ s⁻¹ | Kd (Human IL-4R-Fc (human)): 0.0055 nM | koff (Human IL-4R-Fc (human)): 1.95e-05 s⁻¹ | kon (Human IL-4R-Fc (human)): 3.55e+06 M⁻¹ s⁻¹ | IC50, neutralization of hIL-4-induced signaling, stat-6 reporter gene assay [11]: 1.44 ng/mL | IC50, neutralization of hIL-13-induced signaling, stat-6 reporter gene assay [11]: 1.83 ng/mL | rel. IC50 (IC50, dupilumab/IC50, test sample), hIL-4 [11]: 0.39 | rel. IC50 (IC50, dupilumab/IC50, test sample), hIL-13 [11]: 0.57 | Kd [12]: 0.392 nM | koff [12]: 0.00105 s⁻¹ | kon [12]: 2.67e+06 M⁻¹ s⁻¹ | Kd [13]: 0.0946 nM | koff [13]: 0.000182 s⁻¹ | kon [13]: 1.92e+06 M⁻¹ s⁻¹

B7: PRO1898 (scFv, V domains shown)
VH: EVQLVESGGGLVQPGGSLRLSCAASGFSSSSAHYMCWVRQAPGKGLEWIGCIYAGSRGSTYYASWAKGRFTISRDNSKNTVYLQMNSLRAEDTAVYYCARAAFVNRGVSWIWPYYFSLWGQGTLVTVSS
VL: DIQMTQSPSSLSARVGDRVTITCQASEDIESYLAWYQQKPGKAPKLLIYRASTLAYGVPSRFSGSGSGRDFTLTISSLQPEDFATYYCLGSSYSTGSNIFGTGTKVTVLG
IC50, neutralization of hIL-4 induced signaling, stat-6 reporter gene assay [11]: 1 ng/mL | IC50, neutralization of hIL-13 induced signaling, stat-6 reporter gene assay [11]: 1.15 ng/mL | rel. IC50 (IC50, dupilumab/IC50, test sample), hIL-4 [11]: 1.15 | rel. IC50 (IC50, dupilumab/IC50, test sample), hIL-13 [11]: 0.87

Second part, the binder after the results:

Kd [6]: 1.07 nM | koff [6]: 0.000594 s⁻¹ | kon [6]: 554000 M⁻¹ s⁻¹ | IC50, neutralization of hIL-31-induced signaling in IL-31RA/OSMR dimerization assay [7]: 8.21 ng/mL | rel. IC50 (IC50, BMS-981164/IC50, test sample) [7]: 0.73
B2: PRO1900 (scFv, V domains shown)
VH: QSQLVESGGGRVQPGGSLRLSCAASGFSFSANYWICWVRQAPGKGLEWIVCIYIGSRADTYYAPWAKGRFTISKDNSKNTVYLQMNSLRAEDTATYFCARFSSGIYDLDRFFLWGQGTQVTVSS
V domain: AFQLTQSPSSLSASVGDRVTITCQASQSIDSWLAWYQQKPGKPPKLLIYQASKLASGVPSRFSGSGSGTDYTLTISSLQPEDFATYYCQTYYGGGHIGWGFGTGTKVTV

Kd [6]: 1.39 nM | koff [6]: 0.000605 s⁻¹ | kon [6]: 434000 M⁻¹ s⁻¹ | IC50, neutralization of hIL-31-induced signaling in IL-31RA/OSMR dimerization assay [7]: 7.98 ng/mL | rel. IC50 (IC50, BMS-981164/IC50, test sample) [7]: 1.49
B3: PRO1903 (scFv, V domains shown)
VH: QSQLVESGGGLVQPGGSLRLSCAASGFSFSANYWICWVRQAPGKGLEWIVCIYIGSRADTYYAPWAKGRFTISKDNSKNTVYLQMNSLRAEDTAVYFCARFSSGIYDLDRFFLWGQGTLVTVSS
V domain: AFQLTQSPSSLSASVGDRVTITCQASQSIESWLAWYQQKPGKPPKLLIYQASKLASGVPSRFSGSGSGTDYTLTISSLQPEDFATYYCQTYYGGGHIGWGFGTGTKVTV

IC50, neutralization of hIL-4 induced signaling, stat-6 reporter gene assay [11]: 0.71 ng/mL | IC50, neutralization of hIL-13 induced signaling, stat-6 reporter gene assay [11]: 0.56 ng/mL | rel. IC50 (IC50, dupilumab/IC50, test sample), hIL-4 [11]: 1.61 | rel. IC50 (IC50, dupilumab/IC50, test sample), hIL-13 [11]: 1.8
B6: PRO1899 (scFv, V domains shown)
VH: EVQLVESGGGRVQPGGSLRLSCAASGFSSSSAHYMCWVRQAPGKGLEWIGCIYAGSRGSTYYASWAKGRFTISKASSTTVYLQMNSLRAEDTATYYCARAAFVNRGVSWIWPYYFSLWGQGTQVTVSS
VL: DIQMTQSPSSLSASVGDRVTITCQASEDIESYLAWYQQKPGKAPKLLIYRASTLAYGVPSRFSGSGSGTDFTLTISSLQPEDFATYYCLGSSYSTGSNIFGTGTKVTVLG
